The results in this text go back to article PMC9940634.

The data set has as its target T1, HIC2 ZF2-5 (Homo sapiens, UniProt Q96JB3 503-615).
T1 sequence: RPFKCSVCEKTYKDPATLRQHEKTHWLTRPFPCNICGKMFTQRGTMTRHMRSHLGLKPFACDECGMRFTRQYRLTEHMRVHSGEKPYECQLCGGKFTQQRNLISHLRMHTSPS
Kind of data set: X-ray crystallography.

B1: +55 enhancer HIC2 motif-2/GATA 16-mer (dsDNA)
DNA 1: AGATAATGCCAACAGT
DNA 2: ACTGTTGGCATTATCT
Take B1: the binding result is “binds”.
